According to patent publication US20190211099A1, “METHODS AND COMPOSITIONS FOR TREATING CANCER WITH SIGLEC-9 ACTIVITY MODULATORS” (KING'S COLLEGE LONDON, priority 2016, published 2019):

Target: Siglec-9 expressed by primary monocytes, monocyte-derived macrophages and monocytic cell lines (THP-1, U937) (human) (UniProt Q9Y336)
Test: cell-based or functional assay

Siglec-9 expressed by primary monocytes, monocyte-derived macrophages and monocytic cell lines (THP-1, U937) (human), sequence (Q9Y336 19-463): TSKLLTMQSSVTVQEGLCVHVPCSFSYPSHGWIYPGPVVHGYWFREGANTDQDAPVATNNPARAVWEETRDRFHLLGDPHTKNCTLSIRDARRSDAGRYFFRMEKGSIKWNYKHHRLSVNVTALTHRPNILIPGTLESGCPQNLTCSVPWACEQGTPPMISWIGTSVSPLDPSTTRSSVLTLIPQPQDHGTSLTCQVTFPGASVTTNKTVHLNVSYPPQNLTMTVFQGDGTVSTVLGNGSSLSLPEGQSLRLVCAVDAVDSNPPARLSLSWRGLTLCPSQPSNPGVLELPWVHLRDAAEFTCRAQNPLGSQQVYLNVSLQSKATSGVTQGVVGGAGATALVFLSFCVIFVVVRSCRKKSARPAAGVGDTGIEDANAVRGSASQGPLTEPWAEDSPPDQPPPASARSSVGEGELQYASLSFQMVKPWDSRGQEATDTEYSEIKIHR

IDO mRNA expression in macrophages (qRT-PCR): 10 to 25 fold
Substance: MUC1-ST (recombinant secreted MUC1 consisting of 16 tandem repeats carrying sialylated Core-1 glycans, Ig part removed by trypsin) (from UniProt P15941 129-448) (ligand)
